According to the supplement of paper PMC9170038:

What was measured:
MS2 coat protein [1] = assay: apparent KD of MS2 coat protein, switch ON state; designed switch direction (-1 OFF switch, 1 ON switch): -1; higher = weaker reporter binding; conditions: FMN input: 0 or 200 uM; Eterna round: R93 (includes R88 designs)
Outline: (§1)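 Values are apparent KD, taken as the median for each design of fits to normalised binding curves from individual clusters. The designed RNA switches were transcribed on-chip from Illumina sequencing clusters and exposed to SNAP-549-labelled MS2 coat protein at twofold increasing amounts from 0.7 or 1.5 nM to 3 µM. Titration used 100 mM Tris-HCl pH 7.5, 80 mM KCl and 4 mM MgCl2, without or with constant ligand.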

MS2 coat protein [2] = assay: apparent KD of MS2 coat protein, switch OFF state (with FMN for OFF switches, without FMN for ON switches); designed switch direction (-1 OFF switch, 1 ON switch): -1; higher = weaker reporter binding; conditions: FMN input: 0 or 200 uM; Eterna round: R93 (includes R88 designs)
Outline: as §1

Row | Sequence | apparent KD of MS2 coat protein (MS2 coat protein [1]) | apparent KD of MS2 coat protein (MS2 coat protein [2])
1 | CGAAUACAUGAGGAUCACCCAUGUUAGGAUAUGCGAAAACAAAACAAAACAAACAAAAGUAGAAGGAGCAACAA [EXC - 1] | 18.1 nM | 20 nM
2 | CGCAAGUCAGGAUAUUCGACAAGUAAAUCAGUAGAUCAAAAGAAGAAGGGACAUGAGGAUCACCCAUGUAAAUA [JR_Exc004_Sub403] | 40 nM | 26 nM
3 | CGUUUGUUAGGAUAUAGCCACAUUACGAAUAAGUAGUGUGGCUAGAAGGAACAUGAGGAUCACCCAUGUAUGGG [Exclusion 4.3 (AU closing FMN)] | 110 nM | 78.5 nM
4 | CUCAAGUAAGGAUAUAGAAGAAAAGAAGAGAAAGAAAAGAACUAGAAGGUACAUGAGGAUCACCCAUGUAAGAA [EteRNA is fun!] | 41.6 nM | 21.5 nM
5 | CUCAAGUAAGGAUAUUCAAGAAAAGAAGAGAAAGAAAAGAAGAAGAAGGUACAUGAGGAUCACCCAUGUAAGAA [EteRNA is fun!] | 44.6 nM | 35.3 nM
6 | CUCAAGUAAGGAUAUUUAUGAAAUGAAGUGAAAGAAAAGAAAAAGAAGGUACAUGAGGAUCACCCAUGUUAGAA [EteRNA is fun!] | 32.8 nM | 19.6 nM
7 | CUCAAGUGAGGAUAUACAAAUAGUAAAUAAGUAUAACAAAAGUAGAAGGCACAUGAGGAUCACCCAUGUAAAUA [JR_Exc004_Sub302] | 29.4 nM | 26.3 nM
8 | CUCAAGUUAGGAUAUCUAAGAAAAGAAGAGAAAGAAAAGAAAGAGAAGGAACAUGAGGAUCACCCAUGUAAGAA [EteRNA is fun!] | 18.4 nM | 25.7 nM
9 | CUCAUGUCAGGAUAUCAGUAGUAAAAAAAUAAAAUUACUACUGAGAAGGGACAUGAGGAUCACCCAUGUCCAAA [EX4 367: Super Stable 67] | 93.1 nM | 36.1 nM
10 | CUCAUGUCAGGAUAUGUAGCAUGAUACGAAAGUAUCAUGCUACAGAAGGGACAUGAGGAUCACCCAUGUGAUCA [Ex4: 941] | 31.7 nM | 25.5 nM
11 | CUCUAGUUAGGAUAUGCAAGAAAAGAAAAGAAAGAAAAGAAGCAGAAGGAACAUGAGGAUCACCCAUGUAAGAA [EteRNA is fun!] | 49.4 nM | 62.5 nM
12 | CUCUUGUAAGGAUAUCACCACACAAAAAAAAAAAAGUGUGGUGAGAAGGUACAUGAGGAUCACCCAUGUACUAA [Banishment 12 - Jieux - Exclusion 4] | 23.6 nM | 25.2 nM
13 | CUCUUGUCAGGAUAUAGAAGAAAAGAAGAGAAAGAAAAGAACUAGAAGGGACAUGAGGAUCACCCAUGUAAGAA [EteRNA is fun!] | 48.7 nM | 49.2 nM
14 | CUCUUGUCAGGAUAUCGAUGAAUAAUAAAACAGAGGAACAUUGAGAAGGGACAUGAGGAUCACCCAUGUAAAAC [May 83] | 73.1 nM | 48.9 nM
15 | CUCUUGUCAGGAUAUGAAAGAAAAGAAAAGAAAGAAAAGAAUCAGAAGGGACAUGAGGAUCACCCAUGUAAGAA [EteRNA is fun!] | 64 nM | 76.9 nM
16 | CUCUUGUCAGGAUAUGCAAGAAAAGAAAAGAAAGAAAAGAAGCAGAAGGGACAUGAGGAUCACCCAUGUAAGAA [EteRNA is fun!] | 76.7 nM | 77.7 nM
17 | CUCUUGUGAGGAUAUGUAAGAAAAGAAGAGAAAGAAAAGAAACAGAAGGCACAUGAGGAUCACCCAUGUAAGAA [EteRNA is fun!] | 52.8 nM | 146 nM
18 | CUUAAACAUGAGGAUCACCCAUGUGAGGAUAUGAUGCGAAUAAAGAAAGAAGAAAGCAUCAGAAGGCACAUAUG | 27.7 nM | 129 nM
19 | CUUAUGUGAGGAUAUGUACAGAAAAAAAAGGGUGUAACUGUACAGAAGGCACAUGAGGAUCACCCAUGUGAAUA [EX4 380: S S Pseudoknot 5] | 61.9 nM | 25.1 nM
20 | CUUAUGUGAGGAUAUGUACAGAAAAAACUGGGUGUAACUGUACAGAAGGCACAUGAGGAUCACCCAUGUGCAAA [EX4 388: S S Pseudoknot 13] | 70.2 nM | 56.8 nM
21 | GAAAACAGAGGAUAUACAAAAUUAUGACGAAAGUCAUAAAAACAUGAGGAUCACCCAUGUAGAAGGCUGAAGAA [Meechl MS2 Ex2] | 28.2 nM | 21.6 nM
22 | GAAAAGGCAGGAUAUACAGGAUAUAGAAGGAGGAUAUAGAGACAUGAGGAUCACCCAUGUAGAAGGGCCAAAAG [Diamond 80] | 48.3 nM | 113 nM
